{"source": "paper doi:10.1101/2022.11.21.517443", "about": "(bioRxiv, 2022)", "proteins": {"B1": {"name": "Escherichia coli glutamine synthetase (enzyme, UniProt P0A9C5 1-469, looked up)", "chain": "MSAEHVLTMLNEHEVKFVDLRFTDTKGKEQHVTIPAHQVNAEFFEEGKMFDGSSIGGWKGINESDMVLMPDASTAVIDPFFADSTLIIRCDILEPGTLQGYDRDPRSIAKRAEDYLRSTGIADTVLFGPEPEFFLFDDIRFGSSISGSHVAIDDIEGAWNSSTQYEGGNKGHRPAVKGGYFPVPPVDSAQDIRSEMCLVMEQMGLVVEAHHHEVATAGQNEVATRFNTMTKKADEIQIYKYVVHNVAHRFGKTATFMPKPMFGDNGSGMHCHMSLSKNGVNLFAGDKYAGLSEQALYYIGGVIKHAKAINALANPTTNSYKRLVPGYEAPVMLAYSARNRSASIRIPVVSSPKARRIEVRFPDPAANPYLCFAALLMAGLDGIKNKIHPGEAMDKNLYDLPPEEAKEIPQVAGSLEEALNELDLDREFLKAGGVFTDEAIDAYIALRREEDDRVRMTPHPVEFELYYSV"}}, "molecular_target": "the molecule itself", "test": "single-particle cryo-EM 2D classification", "note": "Values joined by “and” are separate entries in the source; they are usually repeats but may differ in a detail not shown here. Identical values can stand only once.", "data": [{"protein": "B1", "values": [{"measurement": "stoichiometry N", "value": "10 subunits and 8 subunits"}]}]}
